Assay results from patent publication US20240294661A1 (Genmab, published 2024).

B1: Anti-TF HuMab 098 (antibody, IgG1, V domains shown)
VH: QVQLVQSGAEVRKPGSSVKVSCKASGGSFNNYPIFWVRQAPGQGFEWMGRIIPILGITAYAQKFQGRVTITADKSTSTAYMELNSLRSEDTAVYYCAGGDDLDAFDIWGQGTMVSVSS
VL: DIQMTQSPSSLSASVGDRVTITCRASQGISSWLAWYQQKPEKAPKSLIYAASSLQSGVPSRFSGSGSGTDFTLTISSLQPEDFATYYCQQYNSYPYTFGQGTKLEIK
notes: full length, fully human monoclonal IgG1,kappa; also called HuMab-TF-098
B2: Anti-TF HuMab 111 (antibody, IgG1, V domains shown)
VH: QVQLVESGGGVVQPGRSLRLSCAGSGFTFNRYAMYWVRQAPGKGLDWVAVISNDGINKYYADSVKGRFTISRDNSKNTLYLQMNSLRAEDTAVYYCARDHTMVRGAFDYWGQGTLVTVSS
VL: EIVLTQSPATLSLSPGERATLSCRASQSVSSYLAWYQQKPGQAPRLLIYDASNRATGIPARFSGSGSGTDFTLTISSLEPEDFAVYYCQQRSNWPLTFGGGTKVEIK
notes: full length, fully human monoclonal IgG1,kappa
B3: HuMab-TF-013 (antibody, V domains shown)
VH: EVQLVQSGAEVKKPGESLKISCKGSGYSFTSYWIGWVRQMPGKGLEWMGIIYPGDSDTRYSPSFQGQVTISADKSISTAYLQWSSLKASDTAMYYCARIHRGAGYSSSWPGAFDIWGQGTMVTVSS
VL: DIQMTQSPSSLSASVGDRVTITCRASQGISRWLAWYQQKPEKAPKSLIYAASSLQSGVPSRFSGSGSGTDFTLTISSLQPEDFATYYCQQYDSDPITFGQGTRLEIK
B4: HuMab-TF-044 (antibody, V domains shown)
VH: QVQLVESGGGVVQPGRSLRLSCAASGFTFSDYAMHWVRQAPGKGLEWVAVIPYDGDNKYYADSVKGRFTISRDNSKNTLYLQMNSLRAEDTAVYYCAREDWGLEVDYWGQGALVTVSS
VL: AIQLTQSPSSLSASVGDRVTITCRASQGINSALAWYQQKPGKAPKLLIYDASSLESGVPSRFSGSGSGTDFTLTISSLQPEDFATYYCQQFNSYPLTFGGGTKVEIK
B5: Anti-TF HuMab 011 (antibody, IgG1, V domains shown)
VH: EVQLLESGGGLVQPGGSLRLSCAASGFTFSNYAMSWVRQAPGKGLEWVSSISGSGDYTYYTDSVKGRFTISRDNSKNTLYLQMNSLRAEDTAVYYCARSPWGYYLDSWGQGTLVTVSS
VL: DIQMTQSPPSLSASAGDRVTITCRASQGISSRLAWYQQKPEKAPKSLIYAASSLQSGVPSRFSGSGSGTDFTLTISSLQPEDFATYYCQQYNSYPYTFGQGTKLEIK
notes: full length, fully human monoclonal IgG1,kappa; also called HuMab-TF-011
B6: HuMab-TF-098-vcMMAE (antibody, IgG1, V domains shown)
VH: QVQLVQSGAEVRKPGSSVKVSCKASGGSFNNYPIFWVRQAPGQGFEWMGRIIPILGITAYAQKFQGRVTITADKSTSTAYMELNSLRSEDTAVYYCAGGDDLDAFDIWGQGTMVSVSS
VL: DIQMTQSPSSLSASVGDRVTITCRASQGISSWLAWYQQKPEKAPKSLIYAASSLQSGVPSRFSGSGSGTDFTLTISSLQPEDFATYYCQQYNSYPYTFGQGTKLEIK
modifications: vcMMAE drug-linker alkylated to cysteines of the reduced antibody (positions not given)
notes: DAR 3.9 by RP-HPLC, 3.7 by HIC
B7: HuMab-TF-098-mcMMAF (antibody, IgG1, V domains shown)
VH: QVQLVQSGAEVRKPGSSVKVSCKASGGSFNNYPIFWVRQAPGQGFEWMGRIIPILGITAYAQKFQGRVTITADKSTSTAYMELNSLRSEDTAVYYCAGGDDLDAFDIWGQGTMVSVSS
VL: DIQMTQSPSSLSASVGDRVTITCRASQGISSWLAWYQQKPEKAPKSLIYAASSLQSGVPSRFSGSGSGTDFTLTISSLQPEDFATYYCQQYNSYPYTFGQGTKLEIK
modifications: mcMMAF drug-linker alkylated to cysteines of the reduced antibody (positions not given)
notes: DAR 4.0 by RP-HPLC, 3.9 by HIC
B8: HuMab-TF-011-vcMMAE (antibody, IgG1, V domains shown)
VH: EVQLLESGGGLVQPGGSLRLSCAASGFTFSNYAMSWVRQAPGKGLEWVSSISGSGDYTYYTDSVKGRFTISRDNSKNTLYLQMNSLRAEDTAVYYCARSPWGYYLDSWGQGTLVTVSS
VL: DIQMTQSPPSLSASAGDRVTITCRASQGISSRLAWYQQKPEKAPKSLIYAASSLQSGVPSRFSGSGSGTDFTLTISSLQPEDFATYYCQQYNSYPYTFGQGTKLEIK
modifications: vcMMAE drug-linker alkylated to cysteines of the reduced antibody (positions not given)
notes: DAR 3.9 by RP-HPLC, 3.9 by HIC
B9: HuMab-TF-011-mcMMAF (antibody, IgG1, V domains shown)
VH: EVQLLESGGGLVQPGGSLRLSCAASGFTFSNYAMSWVRQAPGKGLEWVSSISGSGDYTYYTDSVKGRFTISRDNSKNTLYLQMNSLRAEDTAVYYCARSPWGYYLDSWGQGTLVTVSS
VL: DIQMTQSPPSLSASAGDRVTITCRASQGISSRLAWYQQKPEKAPKSLIYAASSLQSGVPSRFSGSGSGTDFTLTISSLQPEDFATYYCQQYNSYPYTFGQGTKLEIK
modifications: mcMMAF drug-linker alkylated to cysteines of the reduced antibody (positions not given)
notes: DAR 3.9 by RP-HPLC, 4.1 by HIC
B10: HuMab-TF-111-vcMMAE (antibody, IgG1, V domains shown)
VH: QVQLVESGGGVVQPGRSLRLSCAGSGFTFNRYAMYWVRQAPGKGLDWVAVISNDGINKYYADSVKGRFTISRDNSKNTLYLQMNSLRAEDTAVYYCARDHTMVRGAFDYWGQGTLVTVSS
VL: EIVLTQSPATLSLSPGERATLSCRASQSVSSYLAWYQQKPGQAPRLLIYDASNRATGIPARFSGSGSGTDFTLTISSLEPEDFAVYYCQQRSNWPLTFGGGTKVEIK
modifications: vcMMAE drug-linker alkylated to cysteines of the reduced antibody (positions not given)
notes: DAR 4.3 by RP-HPLC, 4.1 by HIC
B11: HuMab-TF-111-mcMMAF (antibody, IgG1, V domains shown)
VH: QVQLVESGGGVVQPGRSLRLSCAGSGFTFNRYAMYWVRQAPGKGLDWVAVISNDGINKYYADSVKGRFTISRDNSKNTLYLQMNSLRAEDTAVYYCARDHTMVRGAFDYWGQGTLVTVSS
VL: EIVLTQSPATLSLSPGERATLSCRASQSVSSYLAWYQQKPGQAPRLLIYDASNRATGIPARFSGSGSGTDFTLTISSLEPEDFAVYYCQQRSNWPLTFGGGTKVEIK
modifications: mcMMAF drug-linker alkylated to cysteines of the reduced antibody (positions not given)
notes: DAR 4.1 by RP-HPLC, 4.2 by HIC

Tests used:
[1] = target: T1, TFECDHis (extracellular domain of tissue factor, amino acid 1-251, with C-terminal His tag) (human, UniProt P13726 33-251); assay: ELISA, coated TFECDHis
T1 construct: range 1-251; The stated range 1-251 starts at residue 1 of the precursor; also called recombinant extracellular domain of TF
Description: (§1) Binding of the anti-TF ADCs to TF was measured by ELISA (coated recombinant extracellular domain of TF) and compared with binding of unconjugated anti-TF HuMabs. […] ELISA plates were washed three times with PBS containing 0.05% Tween-20 (PBST), blocked with 200 µL/well PBST at RT for 1 h while shaking (300 rpm), washed three times with PBST and emptied. Subsequently, 100 μl anti-TF ADCs or unconjugated anti-TF HuMabs were added in serial dilutions in PBST and incubated while shaking at RT for 90 min. ELISA plates were washed three times with PBST and emptied. […] Plates were washed three times with PBST, emptied and incubated with 100 μL ABTS solution (50 ml ABTS buffer [Roche] and one ABTS tablet [50 mg; Roche]). After incubation in the dark at RT for 30 min, the reaction was stopped by incubation with 100 μL per well oxalic acid (2% [w/v]; Riedel de Haen) in the dark, for 10 min. Plates were measured at OD 405 nm in an ELISA reader (Biotek Instruments, EL808 Absorbance Microplate Reader).
(§2) Binding curves were analyzed by non-linear regression (sigmoidal dose-response with variable slope) using GraphPad Prism 5 software (GraphPad Software, San Diego, CA, USA).

[2] = target: T2, membrane-bound tissue factor (TF) on cells (human, UniProt P13726 33-295); assay: cell-based or functional assay
[3] = target: T2, membrane-bound tissue factor (TF) on …; assay: FACS, inhibition of binding of 100 nM FVIIa to TF on MDA-MB-231 cells; one representative experiment
Description: MDA-MB-231 cells were washed in PBS to remove serum and plated in 96-well plates (100,000 cells per well). […] Cells were washed with FACS buffer and mean fluorescence intensity (MFI) was measured on a FACSCanto II (Becton Dickinson).

[4] = target: T1, TFECDHis (extracellular domain of …); assay: ELISA, coated TFECDHis; lower end of the group's range, tied to 011 unconjugated by Table 7 (373)
[5] = target: T2, membrane-bound tissue factor (TF) on …; assay: cell-based or functional assay; remark: listed apart in the source
[6] = target: T1, TFECDHis (extracellular domain of …); assay: ELISA, coated TFECDHis; upper end of the group's range, tied to 011-vcMMAE by Table 7 (469)
Description: as §1, §2

| Binder | EC50 [1] [µg/mL] | % kill, A431 cells, anti-kappa-ETA' assay [2] [%] | % kill, BxPC3 cells, anti-kappa-ETA' assay [2] [%] | % kill, MDA-MB-231 cells, anti-kappa-ETA' assay [2] [%] | EC50 of cell killing, A431 cells, anti-kappa-ETA' assay [2] [ng/mL] | EC50 of cell killing, BxPC3 cells, anti-kappa-ETA' assay [2] [ng/mL] | EC50 of cell killing, MDA-MB-231 cells, anti-kappa-ETA' assay [2] [ng/mL] | IC50 [3] [µg/mL] | EC50 [4] [µg/mL] | % kill at 10 µg/mL, A431 cells, ADC killing assay [5] [%] | % kill at 10 µg/mL, HPAF-II cells, ADC killing assay [5] [%] | % kill at 10 µg/mL, NCI-H441 cells, ADC killing assay [5] [%] | IC50 of cell killing, A431 cells, ADC killing assay [5] [ng/mL] | IC50 of cell killing, HPAF-II cells, ADC killing assay [5] [ng/mL] | IC50 of cell killing, NCI-H441 cells, ADC killing assay [5] [ng/mL] | EC50 [6] [µg/mL] |
| --- | --- | --- | --- | --- | --- | --- | --- | --- | --- | --- | --- | --- | --- | --- | --- | --- |
| B1 | 0.422 | 95 | 99 | 96 | 0.09 | 0.013 | 0.72 | 1.22 | – | – | – | – | – | – | – | – |
| B2 | 0.377 | 92 | 98 | 88 | 34 | 15 | 23 | – | – | – | – | – | – | – | – | – |
| B3 | – | 80 | 96 | 56 | 20 | 9.4 | – | – | – | – | – | – | – | – | – | – |
| B4 | – | 66 | 96 | 44 | 98 | 15 | – | – | – | – | – | – | – | – | – | – |
| B5 | 0.373 | 96 | 98 | 88 | 0.39 | 0.26 | 3 | 0.647 | 0.37 | – | – | – | – | – | – | – |
| B6 | 0.426 | – | – | – | – | – | – | – | – | 92 | 71 | 60 | 9 | 1 | 10 | – |
| B7 | 0.401 | – | – | – | – | – | – | – | – | 85 | 73 | 63 | 13 | 5 | 4 | – |
| B8 | 0.469 | – | – | – | – | – | – | – | – | 93 | 71 | 60 | 10 | 3 | 10 | 0.47 |
| B9 | 0.431 | – | – | – | – | – | – | – | – | 78 | 72 | 53 | 22 | 5 | 5 | – |
| B10 | 0.464 | – | – | – | – | – | – | – | – | 90 | 73 | 51 | 46 | 4 | 416 | – |
| B11 | 0.416 | – | – | – | – | – | – | – | – | 73 | 74 | 62 | 83 | 15 | 416 | – |
